The target of the experiment is N-terminal 6X-His-Tagged Caspar (Drosophila). Description: SEC.

“N-terminal 6X-His-Tagged Caspar (natural protein)” yielded a stoichiometry N of 2.

Source of the values: article doi:10.1101/2021.04.07.438776.
